Test [1] concerns the target T1, FcγRIIa H (FcγRIIa, allotype with His at position 131), extracellular domain with C-terminal His tag (human, UniProt P12318 34-217).
T1 construct: extracellular domain; also called FcgRIIa H; 2aH; not shown: His tag at the C terminus
T1 sequence (looked up): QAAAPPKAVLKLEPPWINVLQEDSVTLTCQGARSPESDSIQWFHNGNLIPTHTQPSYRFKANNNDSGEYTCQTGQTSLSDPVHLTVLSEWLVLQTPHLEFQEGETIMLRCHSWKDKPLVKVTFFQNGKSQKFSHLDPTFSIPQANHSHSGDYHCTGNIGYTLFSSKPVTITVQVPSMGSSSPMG
Kind of test: SPR (Biacore); He/Con_2aH divided by He/Con_2b (FcγRIIb). (In SPR one partner is held on a chip, and binding of the other changes the refractive index at the surface.)

Test [2] concerns the target T2, FcγRIIb, extracellular domain with C-terminal His tag (human, UniProt P31994 43-217).
T2 construct: extracellular domain; also called FcgRIIb; 2b; not shown: His tag at the C terminus
T2 sequence (looked up): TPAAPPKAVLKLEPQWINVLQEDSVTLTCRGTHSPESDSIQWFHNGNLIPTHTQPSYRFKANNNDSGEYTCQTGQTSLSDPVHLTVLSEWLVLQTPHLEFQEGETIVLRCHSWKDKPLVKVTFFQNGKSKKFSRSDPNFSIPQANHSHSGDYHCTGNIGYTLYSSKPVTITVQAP
As to the kind of experiment: SPR (Biacore), relative binding vs GpH7-A5/GpH7-B3/GpL16-k0.

The target of test [3] is T1, FcγRIIa H (FcγRIIa, allotype with His …). Described as above.

The record followed here is patent US20150344570A1 (published 2015).

B1: GpH7-A5/GpH7-B3 variant P331_10E/GpL16-k0 (antibody, human IgG1, kappa)
heavy 1: not shown
heavy 2: not shown
light: DIVMTQSPLSLPVTPGEPASISCQASESLVHSNRNTYLHWYLQKPGQSPQLLIYKVSNRFSGVPDRFSGSGSGTDFTLKISRVEAEDVGVYYCSQNTHVPPTFGQGTKVEIERTVAAPSVFIFPPSDEQLKSGTASVVCLLNNFYPREAKVQWKVDNALQSGNSQESVTEQDSKDSTYSLSSTLTLSKADYEKHKVYACEVTHQGLSSPVTKSFNRGEC
notes: Heterodimerized anti-glypican-3 IgG1; mutation in one H chain only; also called He Ab
In the case of B1, the “He_2aH/2b (IIaH/IIb)” value in test [1] was 0.75 ratio. The He/Con_2b in test [2] was 116 % of HeCon Ab (=100). Further, in test [3], the He/Con_2aH is 87.1 % of HeCon Ab (=100).

B2: GpH7-A5/GpH7-B3 variant P331_04F/GpL16-k0 (antibody, human IgG1, kappa)
heavy 1: not shown
heavy 2: not shown
light: DIVMTQSPLSLPVTPGEPASISCQASESLVHSNRNTYLHWYLQKPGQSPQLLIYKVSNRFSGVPDRFSGSGSGTDFTLKISRVEAEDVGVYYCSQNTHVPPTFGQGTKVEIERTVAAPSVFIFPPSDEQLKSGTASVVCLLNNFYPREAKVQWKVDNALQSGNSQESVTEQDSKDSTYSLSSTLTLSKADYEKHKVYACEVTHQGLSSPVTKSFNRGEC
notes: as for B1
For the molecule B2, the “He_2aH/2b (IIaH/IIb)” value in test [1] stood at 0.77 ratio. Further, the He/Con_2b in test [2] was 110 % of HeCon Ab (=100). Moreover, the He/Con_2aH in test [3] is 84.7 % of HeCon Ab (=100).

B3: GpH7-A5/GpH7-B3 variant N325_20W/GpL16-k0 (antibody, human IgG1, kappa)
heavy 1: not shown
heavy 2: not shown
light: DIVMTQSPLSLPVTPGEPASISCQASESLVHSNRNTYLHWYLQKPGQSPQLLIYKVSNRFSGVPDRFSGSGSGTDFTLKISRVEAEDVGVYYCSQNTHVPPTFGQGTKVEIERTVAAPSVFIFPPSDEQLKSGTASVVCLLNNFYPREAKVQWKVDNALQSGNSQESVTEQDSKDSTYSLSSTLTLSKADYEKHKVYACEVTHQGLSSPVTKSFNRGEC
notes: as for B1
As to B3, the “He_2aH/2b (IIaH/IIb)” value in test [1] turned out to be 0.28 ratio. In addition, the He/Con_2b in test [2] is 169 % of HeCon Ab (=100). For the same molecule, in test [3], the He/Con_2aH was 47.2 % of HeCon Ab (=100).

B4: GpH7-A5/GpH7-B3 variant N325_15Y/GpL16-k0 (antibody, human IgG1, kappa)
heavy 1: not shown
heavy 2: not shown
light: DIVMTQSPLSLPVTPGEPASISCQASESLVHSNRNTYLHWYLQKPGQSPQLLIYKVSNRFSGVPDRFSGSGSGTDFTLKISRVEAEDVGVYYCSQNTHVPPTFGQGTKVEIERTVAAPSVFIFPPSDEQLKSGTASVVCLLNNFYPREAKVQWKVDNALQSGNSQESVTEQDSKDSTYSLSSTLTLSKADYEKHKVYACEVTHQGLSSPVTKSFNRGEC
notes: as for B1
In the case of B4, in test [1], the “He_2aH/2b (IIaH/IIb)” value is 0.41 ratio. Besides, the He/Con_2b in test [2] is 99.5 % of HeCon Ab (=100). Moreover, the He/Con_2aH in test [3] was 41.2 % of HeCon Ab (=100).

B5: GpH7-A5/GpH7-B3 variant P331_07I/GpL16-k0 (antibody, human IgG1, kappa)
heavy 1: not shown
heavy 2: not shown
light: DIVMTQSPLSLPVTPGEPASISCQASESLVHSNRNTYLHWYLQKPGQSPQLLIYKVSNRFSGVPDRFSGSGSGTDFTLKISRVEAEDVGVYYCSQNTHVPPTFGQGTKVEIERTVAAPSVFIFPPSDEQLKSGTASVVCLLNNFYPREAKVQWKVDNALQSGNSQESVTEQDSKDSTYSLSSTLTLSKADYEKHKVYACEVTHQGLSSPVTKSFNRGEC
notes: as for B1
For B5, the “He_2aH/2b (IIaH/IIb)” value in test [1] is 0.68 ratio. Besides, the He/Con_2b in test [2] is 114 % of HeCon Ab (=100). Moreover, the He/Con_2aH in test [3] is 77.4 % of HeCon Ab (=100).

B6: GpH7-A5/GpH7-B3 variant P331_15Y/GpL16-k0 (antibody, human IgG1, kappa)
heavy 1: not shown
heavy 2: not shown
light: DIVMTQSPLSLPVTPGEPASISCQASESLVHSNRNTYLHWYLQKPGQSPQLLIYKVSNRFSGVPDRFSGSGSGTDFTLKISRVEAEDVGVYYCSQNTHVPPTFGQGTKVEIERTVAAPSVFIFPPSDEQLKSGTASVVCLLNNFYPREAKVQWKVDNALQSGNSQESVTEQDSKDSTYSLSSTLTLSKADYEKHKVYACEVTHQGLSSPVTKSFNRGEC
notes: as for B1
As for B6, the “He_2aH/2b (IIaH/IIb)” value in test [1] is 0.75 ratio. In addition, the He/Con_2b in test [2] was 114 % of HeCon Ab (=100). The He/Con_2aH in test [3] is 86 % of HeCon Ab (=100).

B7: GpH7-A5/GpH7-B3 variant L328_20W/GpL16-k0 (antibody, human IgG1, kappa)
heavy 1: not shown
heavy 2: not shown
light: DIVMTQSPLSLPVTPGEPASISCQASESLVHSNRNTYLHWYLQKPGQSPQLLIYKVSNRFSGVPDRFSGSGSGTDFTLKISRVEAEDVGVYYCSQNTHVPPTFGQGTKVEIERTVAAPSVFIFPPSDEQLKSGTASVVCLLNNFYPREAKVQWKVDNALQSGNSQESVTEQDSKDSTYSLSSTLTLSKADYEKHKVYACEVTHQGLSSPVTKSFNRGEC
notes: as for B1
Turning to B7, the “He_2aH/2b (IIaH/IIb)” value in test [1] is 0.48 ratio. In addition, the He/Con_2b in test [2] is 235 % of HeCon Ab (=100). The He/Con_2aH in test [3] is 113 % of HeCon Ab (=100).

B8: GpH7-A5/GpH7-B3 variant L328_15Y/GpL16-k0 (antibody, human IgG1, kappa)
heavy 1: not shown
heavy 2: not shown
light: DIVMTQSPLSLPVTPGEPASISCQASESLVHSNRNTYLHWYLQKPGQSPQLLIYKVSNRFSGVPDRFSGSGSGTDFTLKISRVEAEDVGVYYCSQNTHVPPTFGQGTKVEIERTVAAPSVFIFPPSDEQLKSGTASVVCLLNNFYPREAKVQWKVDNALQSGNSQESVTEQDSKDSTYSLSSTLTLSKADYEKHKVYACEVTHQGLSSPVTKSFNRGEC
notes: as for B1
For the molecule B8, the “He_2aH/2b (IIaH/IIb)” value in test [1] amounted to 0.47 ratio. Besides, the He/Con_2b in test [2] is 193 % of HeCon Ab (=100). Further, the He/Con_2aH in test [3] is 90 % of HeCon Ab (=100).
